Where two headings read alike, the source gives them in different places.

Common to all, as to assay: cross-linking
Assay [1] deals with PDI deletion mutant Δ252–277 (S. cerevisiae) (UniProt P17967).
Assay [2] has as its target PDI deletion mutant Δ222–302 (S. cerevisiae) (UniProt P17967).
Assay [3] shares this target. This is another data set of the same source.
For assay [4], the target named is Protein disulfide isomerase (PDI), wild type, S. cerevisiae (S. cerevisiae) (UniProt P17967).
In assay [5] the target is BiP, heavy chain binding protein (S. cerevisiae (endogenous in yeast microsomes)) (UniProt P16474).
Chain of BiP, heavy chain binding protein (S. cerevisiae (endogenous in yeast microsomes)) (P16474 43-682): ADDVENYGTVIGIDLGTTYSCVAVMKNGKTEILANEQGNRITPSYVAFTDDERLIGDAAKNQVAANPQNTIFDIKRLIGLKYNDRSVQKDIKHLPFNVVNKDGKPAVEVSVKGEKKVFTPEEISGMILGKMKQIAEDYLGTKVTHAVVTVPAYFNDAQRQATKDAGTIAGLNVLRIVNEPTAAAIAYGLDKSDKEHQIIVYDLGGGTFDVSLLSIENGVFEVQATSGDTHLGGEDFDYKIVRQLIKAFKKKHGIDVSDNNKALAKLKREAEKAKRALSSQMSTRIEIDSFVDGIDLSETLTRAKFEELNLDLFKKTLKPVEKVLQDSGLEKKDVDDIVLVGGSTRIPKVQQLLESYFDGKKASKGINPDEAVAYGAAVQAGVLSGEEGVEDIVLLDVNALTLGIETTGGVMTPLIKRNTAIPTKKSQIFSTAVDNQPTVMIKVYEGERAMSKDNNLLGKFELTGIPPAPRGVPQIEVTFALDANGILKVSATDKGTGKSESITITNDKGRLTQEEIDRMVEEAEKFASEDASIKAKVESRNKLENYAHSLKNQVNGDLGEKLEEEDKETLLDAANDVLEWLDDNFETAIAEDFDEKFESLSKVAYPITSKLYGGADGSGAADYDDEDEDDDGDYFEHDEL

For “N-benzoyl-NYT-amide, synthetic glycosylation acceptor peptide”, the peptide binding, percent of wild-type (% of wild-type) in assay [1] turned out to be 38; in assay [2], 14; in assay [3], 13.
As to “gpαf, glycopro-α factor (wild type) (natural protein)”, in assay [4], the fold lower intensity of the cross-linking product than that with Δgpαf was 8 fold.
What is called stoichiometry N is the number of molecules, sites or subunits per partner or assembly. As for “Δgpαf, mutant glycosylation site-free pro-α factor (natural protein)”, in assay [1], the fold lower affinity than wild-type PDI was 9 fold and the intensity of the cross-linking product, percent of wild-type (% of wild-type) amounted to 24. Further, in assay [5], the percent of the Δgpαf in the sample cross-linked to BiP was 10%, the Δgpαf bound to BiP in sec61-32 microsomes relative to wild-type microsomes was 2.1 fold and the Δgpαf bound to BiP in sec61-41 microsomes relative to wild-type microsomes stood at 1.3 fold. For the same substance, in assay [2], the fold lower affinity than wild-type PDI worked out at 5 fold and the intensity of the cross-linking product, percent of wild-type (% of wild-type) is 43. In assay [4], this substance registered a percent of the Δgpαf in the sample cross-linked to PDI of 7% and a stoichiometry N of 1.

Values taken from PMC2174254.
